Source: patent US20250011406A1 (US Dept. of Health and Human Services, published 2025)
No end group written: not given here.

T1: peptide NANP5, penta-NANP repeat (not fully specified; biotinylated)
T1 construct: Printed only as the formula (NANP)5 / NANP5
T1 peptide: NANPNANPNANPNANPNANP

T2: NPDP19-KLH conjugate (Plasmodium falciparum, also: conjugated to KLH carrier via maleimide linker, site not given here)
T2 construct: not shown: KLH carrier protein (about 390 kDa)
T2 peptide: KQPADGNPDPNANPNVDPN

B1: iGL-CIS43-HL.K28.m43.151 Fab (Fab, V domains shown)
VH: QVHLVQSGAEVKKPGASVKVSCKASGYTFTSYAIHWVRQAPGQRLEWMGWIKGGNGNTRYSQKFQDRVTITRDTSASTAYMELSSLRSEDTAVYYCALLTVITPDDAFDIWGQGTMVTVSS
VL: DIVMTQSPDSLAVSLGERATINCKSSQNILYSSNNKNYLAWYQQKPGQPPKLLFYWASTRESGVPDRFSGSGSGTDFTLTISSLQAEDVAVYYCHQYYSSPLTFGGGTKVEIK
notes: also called m43_HH28K.17
B2: iGL-CIS43-HL.K28.m42.127 Fab (Fab, V domains shown)
VH: QVQLVQSGAEVKKPGASVKVSCKASGYTFTSYAIHWVRQAPGQRLEWMGWIKAGNGNTRYSQKFQDRVTITRDTSASTAYMELSSLRSEDTAVYYCALLTVITPDDTFDIWGQGTMVTVSS
VL: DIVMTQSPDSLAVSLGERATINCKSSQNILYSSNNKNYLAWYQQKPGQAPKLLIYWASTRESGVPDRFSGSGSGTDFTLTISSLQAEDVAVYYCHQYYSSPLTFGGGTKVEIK
notes: also called m42_HH28K.13
B3: inferred germline CIS43 (iGL-CIS43) Fab (Fab, V domains shown)
VH: QVQLVQSGAEVKKPGASVKVSCKASGYTFTSYAMHWVRQAPGQRLEWMGWINAGNGNTKYSQKFQGRVTITRDTSASTAYMELSSLRSEDTAVYYCALLTVVTPDDAFDIWGQGTMVTVSS
VL: not shown
notes: also called CIS43 gHgL; iGL-CIS43_UCA
B4: mature CIS43 Fab (Fab, V domains shown)
VH: QVQLVQSGAEVKKPGASVKVSCKASGYTFTSYAIHWVRQAPGQRLEWMGWIKAGNGNTRYSQKFQDRVTITRDTSTTTAYMELSSLRSEDTAVYYCALLTVLTPDDAFDIWGQGTMVTVSS
VL: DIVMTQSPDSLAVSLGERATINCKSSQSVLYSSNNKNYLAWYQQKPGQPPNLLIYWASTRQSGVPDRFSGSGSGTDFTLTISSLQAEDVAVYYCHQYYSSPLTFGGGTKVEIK
notes: also called CIS43 mature; CIS43 WT
B5: m43.160 Fab (Fab, V domains shown)
VH: QVQLVQSGAEVKKPGASVKVSCKASGYTFTSYAIHWVRQAPGQRLEWMGWIKAGNGNTRYSQKFQGRVTITRDTSASTAYMELSSLRSEDTAGYYCALLTVITPDDAFDIWGQGTMVTVSS
VL: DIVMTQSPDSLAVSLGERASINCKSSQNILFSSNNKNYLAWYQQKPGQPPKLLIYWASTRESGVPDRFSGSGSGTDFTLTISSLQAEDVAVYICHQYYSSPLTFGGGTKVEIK
notes: also called m43_HH28K.26
B6: inferred germline CIS43 (iGL-CIS43) mAb (IgG) (antibody, V domains shown)
VH: QVQLVQSGAEVKKPGASVKVSCKASGYTFTSYAMHWVRQAPGQRLEWMGWINAGNGNTKYSQKFQGRVTITRDTSASTAYMELSSLRSEDTAVYYCALLTVVTPDDAFDIWGQGTMVTVSS
VL: not shown
notes: as for B3

Key:
[1] = target: T1, peptide NANP5, penta-NANP repeat; experiment: BLI (Octet), Fab on biotinylated NANP5 peptide
Protocol: (§1) Affinity measurements by BLI. Antibody Fab binding affinity to various ligands were measured using biolayer interferometry on an Octet Red384 instrument (fortdBio) with streptavidin capture biosensors (fortdBio) in solid black tilt-well 96-well plates (Geiger Bio-One). Assays were performed with agitation at 25° C. […] In all Octet measurements, parallel correction to subtract systematic baseline drift was carried out by subtracting the measurements recorded for a loaded sensor incubated in PBS. Data analysis was carried out using Octet software, version 9.0. Experimental data were fitted globally with a 1:1 Langmuir model of binding.

[2] = target: T3, recombinant Plasmodium falciparum circumsporozoite protein (rPfCSP), biotinylated (Plasmodium falciparum, UniProt P19597 21-375); experiment: BLI (Octet), Fab on biotinylated rPfCSP; 2-component fit, primary KD
T3 sequence (P19597 21-375 limits assumed): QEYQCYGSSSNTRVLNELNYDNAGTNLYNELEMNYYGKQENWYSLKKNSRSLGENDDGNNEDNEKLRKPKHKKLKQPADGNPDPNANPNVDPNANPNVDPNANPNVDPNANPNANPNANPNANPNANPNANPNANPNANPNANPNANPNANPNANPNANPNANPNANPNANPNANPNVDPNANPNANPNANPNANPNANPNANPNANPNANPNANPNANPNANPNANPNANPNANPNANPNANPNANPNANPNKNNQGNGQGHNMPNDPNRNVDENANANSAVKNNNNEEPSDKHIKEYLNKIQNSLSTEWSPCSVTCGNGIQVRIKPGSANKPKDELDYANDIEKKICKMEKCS
Protocol: as §1

[3] = target: T3, recombinant Plasmodium falciparum …; experiment: BLI (Octet), Fab on biotinylated rPfCSP; 2-component fit, second KD (KD2)
Protocol: as §1

NPDP19-KLH conjugate = target: T2, NPDP19-KLH conjugate; experiment: ELISA on NPDP19-KLH
[4] = target: T4, mature CIS43 antibody (IgG); experiment: competition ELISA (MSD): peptide pre-incubated with CIS43, read-out CIS43 bound to plate-bound rPfCSP
T4 construct: also called CIS43 WT
T4 sequence (heavy, as listed by the source, chain 1 of 2): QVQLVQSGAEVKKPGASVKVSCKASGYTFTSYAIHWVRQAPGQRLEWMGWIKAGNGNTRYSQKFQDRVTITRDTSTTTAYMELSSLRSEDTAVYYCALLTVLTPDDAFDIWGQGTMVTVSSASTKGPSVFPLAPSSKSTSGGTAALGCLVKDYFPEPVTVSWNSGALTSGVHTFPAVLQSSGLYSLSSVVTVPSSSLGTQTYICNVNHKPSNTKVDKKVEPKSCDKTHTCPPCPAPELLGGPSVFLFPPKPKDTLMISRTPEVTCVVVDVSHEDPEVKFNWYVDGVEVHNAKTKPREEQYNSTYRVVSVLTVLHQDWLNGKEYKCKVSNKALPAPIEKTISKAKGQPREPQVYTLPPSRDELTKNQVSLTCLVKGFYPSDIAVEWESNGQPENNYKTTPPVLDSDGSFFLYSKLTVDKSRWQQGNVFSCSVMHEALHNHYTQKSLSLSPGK
T4 sequence (light, as listed by the source, chain 2 of 2): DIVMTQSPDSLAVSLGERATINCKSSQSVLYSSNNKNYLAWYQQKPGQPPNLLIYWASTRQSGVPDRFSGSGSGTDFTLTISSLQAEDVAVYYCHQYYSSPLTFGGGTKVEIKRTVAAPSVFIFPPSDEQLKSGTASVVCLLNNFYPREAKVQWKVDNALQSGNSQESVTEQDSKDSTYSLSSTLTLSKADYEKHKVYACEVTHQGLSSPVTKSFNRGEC
Protocol: Peptides were all 15 amino acids in length, overlapping by 11 residues, and numbered according to their position on the protein. Briefly, streptavidin-coated plates (Meso Scale Discovery, MSD) were blocked with 5% BSA in PBS for 30 min at room temperature (RT), washed five times (wash buffer, 0.05% Tween-20 in PBS), then coated with biotinylated-recombinant PfCSP (0.2 μg/mL, Genscript) in PBS with 1% BSA, and allowed to incubate for 1 h at RT. […] Plates were incubated for 1 h at RT, washed five times, then incubated for an additional 1 h at RT with 1 μg/mL of appropriate secondary (either anti-human or anti-mouse) IgG SULFO-TAG (Meso Scale Discovery) in PBS with 1% BSA/0.05% Tween-20. After washing, plates were read using 1×MSD Read T Buffer (Meso Scale Discovery) on an MSD SECTOR © Imager 6000 instrument.

Binder	Kd [1] [nM]	Kd [2] [nM]	Kd [3] [nM]	binding result (NPDP19-KLH conjugate)	binding result [4]
B1	715	38.3	1700		
B2	952	31.6	1980		
B3	9650	679	5050		
B4	411	45.2	1330		
B5	957	36.8	1820		
B6				binds	
NVDPNANPNANPNAN (also called PfCSP peptide 27) [27: NVDPNANPNANPNAN]					binds
NANPNANPNVDPNAN (also called PfCSP peptide 43) [43: NANPNANPNVDPNAN]					binds
NANPNVDPNANPNAN (also called PfCSP peptide 44) [44: NANPNVDPNANPNAN]					binds
